Assay results taken from patent publication US20060263802A1 (CRUCELL HOLLAND B V, published 2006).

Assays:
Assay in all cases: PEPSCAN ELISA, looped peptide, antibody 10 µg/ml
[1] = biological target: looped/cyclic peptide … (rabies virus strain ERA)
[2] = biological target: looped/cyclic peptide … (rabies virus strain ERA); remark: listed apart in the source
[3] = biological target: looped/cyclic peptide … (rabies virus strain ERA); remark: listed apart in the source
[4] = biological target: looped/cyclic peptide … (rabies virus strain ERA); remark: listed apart in the source
[5] = biological target: looped/cyclic peptide … (rabies virus strain ERA); remark: listed apart in the source
[6] = biological target: looped/cyclic peptide … (rabies virus strain ERA); remark: listed apart in the source
[7] = biological target: looped/cyclic peptide … (rabies virus strain ERA); remark: listed apart in the source
[8] = biological target: looped/cyclic peptide … (rabies virus strain ERA); remark: listed apart in the source
[9] = biological target: looped/cyclic peptide … (rabies virus strain ERA); remark: listed apart in the source
[10] = biological target: looped/cyclic peptide … (rabies virus strain ERA); remark: listed apart in the source
[11] = biological target: looped/cyclic peptide … (rabies virus strain ERA); remark: listed apart in the source
[12] = biological target: looped/cyclic peptide … (rabies virus strain ERA); remark: listed apart in the source
[13] = biological target: looped/cyclic peptide … (rabies virus strain ERA); remark: listed apart in the source
[14] = biological target: looped/cyclic peptide … (rabies virus strain ERA); remark: listed apart in the source
[15] = biological target: looped/cyclic peptide … (rabies virus strain ERA); remark: listed apart in the source
[16] = biological target: looped/cyclic peptide … (rabies virus strain ERA); remark: listed apart in the source
[17] = biological target: looped/cyclic peptide … (rabies virus strain ERA); remark: listed apart in the source
[18] = biological target: looped/cyclic peptide … (rabies virus strain ERA); remark: listed apart in the source
[19] = biological target: looped/cyclic peptide … (rabies virus strain ERA); remark: listed apart in the source
[20] = biological target: looped/cyclic peptide … (rabies virus strain ERA); remark: listed apart in the source
[21] = biological target: looped/cyclic peptide … (rabies virus strain ERA); remark: listed apart in the source
[22] = biological target: looped/cyclic peptide … (rabies virus strain ERA); remark: listed apart in the source
[23] = biological target: looped/cyclic peptide … (rabies virus strain ERA); remark: listed apart in the source
[24] = biological target: looped/cyclic peptide … (rabies virus strain ERA); remark: listed apart in the source
[25] = biological target: looped/cyclic peptide … (rabies virus strain ERA); remark: listed apart in the source
[26] = biological target: looped/cyclic peptide … (rabies virus strain ERA); remark: listed apart in the source
[27] = biological target: looped/cyclic peptide … (rabies virus strain ERA); remark: listed apart in the source
[28] = biological target: looped/cyclic peptide … (rabies virus strain ERA); remark: listed apart in the source
[29] = biological target: looped/cyclic peptide … (rabies virus strain ERA); remark: listed apart in the source
[30] = biological target: looped/cyclic peptide … (rabies virus strain ERA); remark: listed apart in the source
[31] = biological target: looped/cyclic peptide … (rabies virus strain ERA); remark: listed apart in the source
[32] = biological target: looped/cyclic peptide … (rabies virus strain ERA); remark: listed apart in the source
[33] = biological target: looped/cyclic peptide … (rabies virus strain ERA); remark: listed apart in the source
[34] = biological target: looped/cyclic peptide … (rabies virus strain ERA); remark: listed apart in the source
[35] = biological target: looped/cyclic peptide … (rabies virus strain ERA); remark: listed apart in the source
[36] = biological target: looped/cyclic peptide … (rabies virus strain ERA); remark: listed apart in the source
[37] = biological target: looped/cyclic peptide … (rabies virus strain ERA); remark: listed apart in the source
[38] = biological target: looped/cyclic peptide … (rabies virus strain ERA); remark: listed apart in the source
[39] = biological target: looped/cyclic peptide … (rabies virus strain ERA); remark: listed apart in the source
[40] = biological target: looped/cyclic peptide … (rabies virus strain ERA); remark: listed apart in the source
[41] = biological target: looped/cyclic peptide … (rabies virus strain ERA); remark: listed apart in the source
[42] = biological target: looped/cyclic peptide … (rabies virus strain ERA); remark: listed apart in the source
[43] = biological target: looped/cyclic peptide … (rabies virus strain ERA); remark: listed apart in the source
[44] = biological target: looped/cyclic peptide … (rabies virus strain ERA); remark: listed apart in the source
[45] = biological target: looped/cyclic peptide … (rabies virus strain ERA); remark: listed apart in the source
[46] = biological target: looped/cyclic peptide … (rabies virus strain ERA); remark: listed apart in the source
[47] = biological target: looped/cyclic peptide … (rabies virus strain ERA); remark: listed apart in the source
[48] = biological target: looped/cyclic peptide … (rabies virus strain ERA); remark: listed apart in the source
[49] = biological target: looped/cyclic peptide … (rabies virus strain ERA); remark: listed apart in the source
[50] = biological target: looped/cyclic peptide […] (rabies virus strain ERA)
[51] = biological target: looped/cyclic peptide … (rabies virus strain ERA); remark: listed apart in the source
[52] = biological target: looped/cyclic peptide … (rabies virus strain ERA); remark: listed apart in the source
[53] = biological target: looped/cyclic peptide … (rabies virus strain ERA); remark: listed apart in the source
[54] = biological target: looped/cyclic peptide … (rabies virus strain ERA); remark: listed apart in the source
[55] = biological target: looped/cyclic peptide … (rabies virus strain ERA); remark: listed apart in the source
[56] = biological target: looped/cyclic peptide … (rabies virus strain ERA); remark: listed apart in the source
[57] = biological target: looped/cyclic peptide … (rabies virus strain ERA); remark: listed apart in the source
[58] = biological target: looped/cyclic peptide … (rabies virus strain ERA); remark: listed apart in the source
[59] = biological target: looped/cyclic peptide … (rabies virus strain ERA); remark: listed apart in the source
[60] = biological target: looped/cyclic peptide … (rabies virus strain ERA); remark: listed apart in the source
[61] = biological target: looped/cyclic peptide … (rabies virus strain ERA); remark: listed apart in the source
[62] = biological target: looped/cyclic peptide … (rabies virus strain ERA); remark: listed apart in the source
[63] = biological target: looped/cyclic peptide … (rabies virus strain ERA); remark: listed apart in the source
[64] = biological target: looped/cyclic peptide … (rabies virus strain ERA); remark: listed apart in the source
[65] = biological target: looped/cyclic peptide … (rabies virus strain ERA); remark: listed apart in the source
[66] = biological target: looped/cyclic peptide … (rabies virus strain ERA); remark: listed apart in the source
[67] = biological target: looped/cyclic peptide … (rabies virus strain ERA); remark: listed apart in the source
[68] = biological target: looped/cyclic peptide … (rabies virus strain ERA); remark: listed apart in the source
[69] = biological target: looped/cyclic peptide … (rabies virus strain ERA); remark: listed apart in the source
[70] = biological target: looped/cyclic peptide … (rabies virus strain ERA); remark: listed apart in the source
[71] = biological target: looped/cyclic peptide … (rabies virus strain ERA); remark: listed apart in the source
[72] = biological target: looped/cyclic peptide … (rabies virus strain ERA); remark: listed apart in the source
[73] = biological target: looped/cyclic peptide … (rabies virus strain ERA); remark: listed apart in the source
[74] = biological target: looped/cyclic peptide … (rabies virus strain ERA); remark: listed apart in the source
[75] = biological target: looped/cyclic peptide … (rabies virus strain ERA); remark: listed apart in the source

B1: human monoclonal antibody CRJB (antibody, V domains shown)
VH: QITLKETGPTLVKPTQTLTLTCTFSGFSLSTSGVGVGWIRQPPGKALEWVTLIYWDDDKRYSPSLENRVTIRKDTSKNQVALTMTNMDPLDTGTYYCAHRQHISSFPWFDSWGQGTLVTVSS
VL: SYVLTQPPSVSVAPGKTARINCGGNNIEYRSVHWYQQKSGQAPVAVIYDNSDRPSGIPERFSGSKSGNTATLTISRVEAGDEADYYCQVWDISSDVVFGGGTKLTVLG
[1]
  OD value: 62 OD
[2]
  OD value: 65 OD
[3]
  OD value: 93 OD
[4]
  OD value: 73 OD
[5]
  OD value: 85 OD
[6]
  OD value: 62 OD
[7]
  OD value: 45 OD
[8]
  OD value: 65 OD
[9]
  OD value: 49 OD
[10]
  OD value: 84 OD
[11]
  OD value: 118 OD
[12]
  OD value: 60 OD
[13]
  OD value: 64 OD
[14]
  OD value: 57 OD
[15]
  OD value: 74 OD
[16]
  OD value: 76 OD
[17]
  OD value: 86 OD
[18]
  OD value: 93 OD
[19]
  OD value: 82 OD
[20]
  OD value: 90 OD
[21]
  OD value: 78 OD
[22]
  OD value: 71 OD
[23]
  OD value: 83 OD
[24]
  OD value: 82 OD
[25]
  OD value: 98 OD
[26]
  OD value: 60 OD
[27]
  OD value: 55 OD
[28]
  OD value: 46 OD
[29]
  OD value: 88 OD
[30]
  OD value: 99 OD
[31]
  OD value: 86 OD
[32]
  OD value: 69 OD
[33]
  OD value: 72 OD
[34]
  OD value: 96 OD
[35]
  OD value: 72 OD
[36]
  OD value: 83 OD
[37]
  OD value: 101 OD
[38]
  OD value: 90 OD
[39]
  OD value: 55 OD
[40]
  OD value: 73 OD
[41]
  OD value: 73 OD
[42]
  OD value: 71 OD
[43]
  OD value: 65 OD
[44]
  OD value: 71 OD
[45]
  OD value: 93 OD
[46]
  OD value: 102 OD
[47]
  OD value: 68 OD
[48]
  OD value: 92 OD
[49]
  OD value: 74 OD
[50]
  OD value: 71 OD
[51]
  OD value: 96 OD
[52]
  OD value: 111 OD
[53]
  OD value: 75 OD
[54]
  OD value: 60 OD
[55]
  OD value: 92 OD
[56]
  OD value: 51 OD
[57]
  OD value: 69 OD
[58]
  OD value: 72 OD
[59]
  OD value: 66 OD
[60]
  OD value: 68 OD
[61]
  OD value: 78 OD
[62]
  OD value: 71 OD
[63]
  OD value: 112 OD
[64]
  OD value: 79 OD
[65]
  OD value: 68 OD
[66]
  OD value: 76 OD
[67]
  OD value: 70 OD
[68]
  OD value: 75 OD
[69]
  OD value: 72 OD
[70]
  OD value: 59 OD
[71]
  OD value: 83 OD
[72]
  OD value: 82 OD
[73]
  OD value: 54 OD
[74]
  OD value: 71 OD
[75]
  OD value: 78 OD
